Data taken from publication PMC8015186.

What was measured:
[1] = target: TraWF in the BACTH-TM vectors (E. coli (F-plasmid)) (UniProt P18472); assay: two-hybrid
[2] = target: TraBN with T18 or T25 at its N-terminus (BACTH) (Neisseria gonorrhoeae MS11) (UniProt Q5EPB9); assay: two-hybrid

Row | Substance | β-galactosidase signal over background (times above the background level) [1] | β-galactosidase signal over background (times above the background level) [2]
1 | TraVF in the BACTH-TM vectors (from UniProt P41069 19-171) (natural protein) | 8 | 
2 | TrbCN in the BACTH-TM vectors (natural protein) |  | 4
